In article PMC6693564, “RGG-motif self-association regulates eIF4G-binding translation repressor protein Scd6” (RNA Biology, 2019):

Key:
GSTScd6 (recombinant) = molecular target: T1, GSTScd6 (recombinant) (yeast, UniProt P45978 1-349); experiment: pull-down; 450 nM purified proteins with glutathione sepharose beads, 2 h at 4°C, 50mM HEPES pH7, 100mM NaCl, 1mM DTT, 2mM MnCl2, 2mM MgCl2, 1% Triton-X100, 10% glycerol, 0.25mg/ml RNase A, 10mg/ml BSA; GST fusion as bait; anti-FLAG blot; for Figure 5e Scd6FLAG first incubated with Hmt1 with or without SAM; conditions: both partners purified
T1 construct: Scd6, yeast; also called full-length GSTScd6; source: E. coli BL21, purified (glutathione sepharose)
T1 sequence (looked up): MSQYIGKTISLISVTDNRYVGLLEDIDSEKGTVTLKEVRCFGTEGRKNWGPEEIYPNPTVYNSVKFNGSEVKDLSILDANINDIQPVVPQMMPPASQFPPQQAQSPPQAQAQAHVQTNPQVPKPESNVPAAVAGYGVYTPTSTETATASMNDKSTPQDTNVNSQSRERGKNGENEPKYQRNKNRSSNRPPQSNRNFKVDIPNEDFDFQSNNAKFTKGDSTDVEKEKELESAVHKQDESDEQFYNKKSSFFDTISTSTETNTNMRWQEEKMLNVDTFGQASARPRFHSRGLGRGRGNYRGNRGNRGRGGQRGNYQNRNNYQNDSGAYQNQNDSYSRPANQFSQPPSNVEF

[1] = molecular target: T2, HisSbp1FLAG (recombinant) (yeast, UniProt P10080 1-294); experiment: pull-down; FLAG pull-down of purified Sbp1FLAG with purified Sbp1GFP or Sbp1GFPΔRGG in the presence of RNase A; 450 nM proteins; blots with anti-GFP and anti-FLAG; conditions: both partners purified
T2 construct: Sbp1, yeast; also called full-length Sbp1FLAG; source: E. coli XL1-Blue, purified (Ni-NTA)
T2 sequence (looked up): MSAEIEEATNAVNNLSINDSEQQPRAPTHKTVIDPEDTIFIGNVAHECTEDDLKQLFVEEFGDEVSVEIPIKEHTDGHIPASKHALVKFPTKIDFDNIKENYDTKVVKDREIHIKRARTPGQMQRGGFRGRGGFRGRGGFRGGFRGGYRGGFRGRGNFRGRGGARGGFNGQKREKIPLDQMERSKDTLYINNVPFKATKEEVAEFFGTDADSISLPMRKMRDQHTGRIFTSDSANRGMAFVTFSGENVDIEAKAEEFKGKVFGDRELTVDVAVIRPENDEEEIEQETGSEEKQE

[2] = molecular target: the molecule itself; experiment: SEC; Sephacryl S-200 HR (45 ml, manual), 1 mg protein in 100 µl loaded, 20mM HEPES-KOH pH7.6, 100mM KCl, 10% glycerol; standards 200, 150, 66, 29 kDa

B1: in vitro methylated Scd6FLAG (natural protein, yeast, UniProt P45978 1-349, looked up)
chain: MSQYIGKTISLISVTDNRYVGLLEDIDSEKGTVTLKEVRCFGTEGRKNWGPEEIYPNPTVYNSVKFNGSEVKDLSILDANINDIQPVVPQMMPPASQFPPQQAQSPPQAQAQAHVQTNPQVPKPESNVPAAVAGYGVYTPTSTETATASMNDKSTPQDTNVNSQSRERGKNGENEPKYQRNKNRSSNRPPQSNRNFKVDIPNEDFDFQSNNAKFTKGDSTDVEKEKELESAVHKQDESDEQFYNKKSSFFDTISTSTETNTNMRWQEEKMLNVDTFGQASARPRFHSRGLGRGRGNYRGNRGNRGRGGQRGNYQNRNNYQNDSGAYQNQNDSYSRPANQFSQPPSNVEF
modifications: arginine methylation by Hmt1 in vitro (stained by mono-methylarginine specific antibody); sites not given
notes: Scd6, yeast; Same protein as m4 after methylation; source: E. coli BL21, purified, then methylated in vitro by incubating with Hmt1 and SAM
binding result (GSTScd6 (recombinant)): binds

B2: HisSbp1GFP (recombinant) (natural protein, yeast, UniProt P10080 1-294, looked up)
chain: MSAEIEEATNAVNNLSINDSEQQPRAPTHKTVIDPEDTIFIGNVAHECTEDDLKQLFVEEFGDEVSVEIPIKEHTDGHIPASKHALVKFPTKIDFDNIKENYDTKVVKDREIHIKRARTPGQMQRGGFRGRGGFRGRGGFRGGFRGGYRGGFRGRGNFRGRGGARGGFNGQKREKIPLDQMERSKDTLYINNVPFKATKEEVAEFFGTDADSISLPMRKMRDQHTGRIFTSDSANRGMAFVTFSGENVDIEAKAEEFKGKVFGDRELTVDVAVIRPENDEEEIEQETGSEEKQE
notes: Sbp1, yeast, wild type; source: E. coli XL1-Blue, purified (Ni-NTA)
binding result [1]: binds

B3: HisScd6FLAG (recombinant) (natural protein, yeast, UniProt P45978 1-349, looked up)
chain: MSQYIGKTISLISVTDNRYVGLLEDIDSEKGTVTLKEVRCFGTEGRKNWGPEEIYPNPTVYNSVKFNGSEVKDLSILDANINDIQPVVPQMMPPASQFPPQQAQSPPQAQAQAHVQTNPQVPKPESNVPAAVAGYGVYTPTSTETATASMNDKSTPQDTNVNSQSRERGKNGENEPKYQRNKNRSSNRPPQSNRNFKVDIPNEDFDFQSNNAKFTKGDSTDVEKEKELESAVHKQDESDEQFYNKKSSFFDTISTSTETNTNMRWQEEKMLNVDTFGQASARPRFHSRGLGRGRGNYRGNRGNRGRGGQRGNYQNRNNYQNDSGAYQNQNDSYSRPANQFSQPPSNVEF
notes: Scd6, yeast; predicted molecular mass of the purified protein about 41.5 kDa; also called purified Scd6; source: E. coli BL21, purified (HisTrap HP, HiTrap Heparin HP)
stoichiometry N [2]: 2
